Among the data in a protein production outcome set (Wang et al. 2014) are protein production values, retold here.
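Also: failed if final PepcDB status was selected cloned or expressed and not failed if soluble or beyond.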

The data set in a line: label from the status in PepcDB records.
For “MSSVERYLSQLVKTEPQLETLKELYIGKKWHQLTEELLKLIHSGQVNRINLVELYDSFIREFESSLNPLALVRILVGIARKNYRDLNKALEFVDYATNSKAFISADEEASLFLKSETARLKLEGGNLSGVKQILEEVGVAMESTRDLDTVVHSSYHRVCAQYYKAVGPATKYYSSALLFFQYAPLDSFTVEERVHWAYDLGVASIVAETIFNFGEILEYDIMQSLKSEKLQWLLELLEAFKYGSIEKFNQVSNDHMSYYFVL”, the protein production result is given as “failed”. To “MGLALCGAAAQAQEKPNFLIIQCDHLTQRVVGAYGQTQGCTLPIDEVASRGVIFSNAYVGCPLSQPSRAALWSGMMPHQTNVRSNSSEPVNTRLPENVPTLGSLFSESGYEAVHFGKTHDMGSLRGFKHKEPVAKPFTDPEFPVNNDSFLDVGTCEDAVAYLSNPPKEPFICIADFQNPHNICGFIGENAGVHTDRPISGPLPELPDNFDVEDWSNIPTPVQYICCSHRRMTQAAHWNEENYRHYIAAFQHYTKMVSKQVDSVLKALYSTPAGRNTIVVIMADHGDGMASHRMVTKHISFYDEMTNVPFIFAGPGIKQQKKPVDHLLTQPTLDLLPTLCDLAGIAVPAEKAGISLAPTLRGEKQKKSHPYVVSEWHSEYEYVTTPGRMVRGPRYKYTHYLEGNGEELYDMKKDPGERKNLAKDPKYSKILAEHRALLDDYITRSKDDYRSLKVDADPRCRNHTPGYPSHEGPGAREILKRK” belongs “not failed”; to “MHTFTASSSLGASADALFTWHSRPGAFERLTPPWAPVRLQSFEGIEAGDRAVLRIGPGPLAVRWVAEHYGVEPGRQFCDRQVQGPFSHWEHTHRFTPADDDTGGATLTDRIEYEPPGGALGRQAAPWLEAELRRQFAYRHRITRRDLSLHQQYNPDDRSLTIAVSGASGLVGSSLVPFLTTGGHTVKRLTRSGPTGADEILWDPRTDRVEADKLEGIDAVIHLAGENVFGPWTPAKKQRIYSSRADGTRLLAEALAGLDDPPEVLVSSSAVGYYGDHGADRITEESAPRDAGFLGEVCEAWEAAAEPAAAAGIRTVQMRTGIVLTPAGGALRLMLPAFWLGLGGRVGGRHQYFPWITLDDVIGGIYHALWTDALEGPVNLTAPRPVTMQAYTDTLADVLHRPAFLNVPSSVVRTVGGEMADEMLLTSARAVPQRLQDTGYDFGASALEDGLRHVLGRTAD”, “failed”; to “DEWTDVKKVMALGFFDGVHLGHQAVIKQAKQIAEEKGLQTAVLTFDPHPSVVLSNIRKQVKYLTPLEDKAEKMANLGVDIMYVVRFTTQFSELSPRAFVDNYLVALNVKHVVAGFDYSYGKKGEGKMTELENYANGRFEVTIVDKQTAASDKISSTNIRRAITEGELEEANQLLGYP”, “not failed”. Then “MIQMVKRVHIFDWHKEHARKIEEFAGWEMPIWYSSIKEEHLAVRNAVGIFDVSHMGEIVFRGKDALKFLQYVTTNDISKPPAISGTYTLVLNERGAIKDETLVFNMGNNEYLMICDSDAFEKLYAWFTYLKRTIEQFTKLDLEIELKTYDIAMFAVQGPKARDLAKDLFGIDINEMWWFQARWVELDGIKMLLSRSGYTGENGFEVYIEDANPYHPDESKRGEPEKALHVWERILEEGKKYGIKPCGLGARDTLRLEAGYTLYGNETKELQLLSTDIDEVTPLQANLEFAIYWDKDFIGKDALLKQKERGVGRKLVHFKMIDKGIPREGYKVYANGEMIGEVTSGTLSPLLNVGIGIAFVKEEYAKPGIEIEVEIRGQRKKAVTVTPPFYDPKKYGLFRET”, with “not failed”; and “MSEFMQRFADLRDRKAYAEIVDALPYVKLMGTSMAEDEQGELRFELPFLQRNVGNTTLPALHGGLIGGFMESAAMIHLMWNRESLEAPKIVDFSLDYLRPGRPQTLFAQCEITKQGKRVAHVLIEAWQDDRSKPVAVARAHFLLTNLEHHHHHH”, with “not failed”; and “MGSSHHHHHHSSGENLYFQGHMKTADLCDQFLDELQVCELPFQSYGGKRMFSGPIATVDVFEDNVLVREALETVPPGTVLVVDGKGSRRVALLGDRLAQIACERGLAGVIIHGCIRDSAEIGAMPIGVMAIGTCPVKSKKEGKGARDVVLEFGGVRWEPGAYVYADADGVVVANKDLLAKNG”, with “not failed”. Turning to “MSESTYPSVKDLTLEEKASLTSGGDSWHLQGVESKGIPGYMITDGPHGLRKSLASSTGETDLNNSVPATCFPPAAGLSSSWNPELIHKVGEAMAEECIQEKVAVILGPGVNIKRNPLGGRCFEYWSEDPYLAGHEAVGIVAGVQSKGVGTSLKHFAANNQETDRLRVDARISQRALREIYLPAFEHIVKTAQPWTIMCSYNRINGVHSAQNHWLLTDVLRDEWGFEGIVMSDWGADHDRVASLNAGLNLEMPPSYTDDQIVYAARDGRIAPAQLDRMAQGMIDLINKACAAMSIDGYRFDVDAHDEVAHQAAIESIVLLKNDDAILPLNADPAAARKIAVIGEFARTPRYQGGGSSHITPTKMTSFLDTLAERGIKADFAPGFTLDLEPADPALESEAVETAKNADVVLMFLGLPEAAESEGFDRDTLDMPAKQIALLEQVAAANQNVVVVLSNGSVVSVAPWAKNAKGILESWLLGQSGGPALADVIFGQVSPSGKLAQSIPLDINDDPSMLNWPGEEGHVDYGEGVFVGYRYYDTYGKSVDYPFGYGLSYATFEIADVAAAKTGANTATVTATVTATVTNTSDVDAAETVQVYVAPGKADVARPKHELKGFTKVFLKAGESKSVTIDLDERAFAYWSEKYNDWHVESGEYAIEVGVSSRDIADTVVVTLEGDGKSQPLTEWSTYGEWEADPFGAKIVAAVAAAGEAGELTKLPDNAMMRIFLNSMPINSLSTLLGEGGKKIAKFMVDEYAKLAK”, the protein production result is “failed”.

Consider “TIFKDIYQLWFTQYKQTVKESTWVTTQRLFRLHILPIFSDYRIAKISIKDCQKAINQWFNAGLAKYHTLMNYVAKVLDYAINIDLISENPAKRVIVPVNKNDRS”, for which the protein production entry is recorded as “failed”. Consider “GVKCEPFEALTVDVEDAHQGGVMEELGRRKGDLQDMQPDGRGRTRLEYIIPARGLIGFQNEFLTLTRGTGLMSHIFHEYAPLREGSIGERRNGVLISQDNGDAVAYALWKLQDRGRMFVSPGEPLYEGMI”, for which the protein production entry is “failed”. Then “MMPPNQPLATYLDDAPSHGGMMRERRYYRAYGLTVASDVALPELEPTEPAAADILIAIGTIDMPKPSSEAATIFRFEPDRQYLAWHAVGAFLISDADRIDIEPAPGVDDALLAFPLLGPVMALLLHQRGLLVLHASAIAAAGKGAIFMGDKGAGKSTTASALIRAGHELLTDDVVALDLARPDAPMIVAGFPQIKLAADAAAAISLGRAEVRPQVHPAIEKMQHRLHGAFSGGMVPATRIYVLERGAKAAITALPGIAALPAIIKFSYVTRFGRAALSGDFAALHLRQCSAIANHVGVFRLEVPTGLDRIGEAVALVESDLAAGDLAAGRRRR”, with “failed”. To “MFLDRERELQFLERRYEMGGPEFIVIYGRRRVGKTALLLEFISRHGGIYLLARETSNLENLKRFSDRLSEYFGDDFLKRNPFQNWDAFLEYLNQKATERLVVVIDEFPYLVKGDRSLPSILQEYWDLKLSNGRIFLIICGSSISMMEKLLGYKSPIYGRRTGQINLKPVDFLHAREFLPGYSLEDFIKAYGILGGSPAHLLEFDDSKTIKENLLEYLRSDSLLYQDAFFVLREELEEPRNYFAIMEAVAAGKTSLGEIMNETGLSRATVAKYLSVLIELDFVKREIPITASRKSRRGRYYIKDNYFAFWFRYIHPNIDFIESERRKELLELIIDDLPNYLGGIFENVAIEFLPLISNKLPFKPLKIGRWWHKNEEIDLVAFNEKEEKAILIEVKWKTLNKIEANKILKDLNRKSKILKMKEWEQYHGIIAKRVKDKEKIKGGLIWDLEDIENLKFSPELEHHHHHH” belongs “not failed”.

Turning to “MSKNYQVLAKKIIDIVGVDNVESVTHCQTRLRFVVKDPKQIDKAALEDLDEVKGVFFGSGQYQVIIGTGVVNDVYDAIEKLHLVNAIYSQETTTTPTPDNQKSPLQRFMAMLSGIFIPIIPVIAATGLFLGLQSALTNNQVLQLFGTSSAAIPASLNTVISVLTGTVFSFLPALIVWSTFRYFKGTPIVGIVIGLMLVSPSLPNAYSVAGGTAKAIMLFDRIPVIGSQGSVLTALVAGFLGSKLEHYFHKHVPNVLDQILTPFLTMLVTFGIMILGVGPVVHWIENVMISGVEGLINLPFGIGGFLIGAAYPLMVLVGIHQMMIAIETSLLAATKLNPLITLEAMYGFANLGVALAMILRAKSQKAKANFIGAFSSQLFGVSEPTLFGVLIRYNFKPLVVTVLTSGIGAGVLSVMSVAANSYGLAVVPSYLMYIYNVRDLLIYTVVSLLTVAVAFIATNMFAIPKDILKSDQVQPKIVDDTIFSPVSGKSIALSTVNDPVFASKMMGDGIAIKPQEQGPVKVYAPQSGQMSVVADTGHAYGLTTNNGVELLIHIGIDTVSLKGQGFKVIVKPGQTVQKGDLLGEFDSTVLKAANLDDTVMVIVTNSKNYQRIESEPNQSIQSGAALLAIQGRPEMTTATAS”, the protein production result is on record as “failed”. As for “MFSIIWMLFTPLLLLCGIAGGIFLIVTGIKYRKLLVGLMGLLSLSFVTLPFVLLSVGIHIDTIFPIPTALYWTLFSLTGLLAGVSGVQAKIKSIRNMGFIIFTIGILGVIFWELMSVGDSFYI”, the protein production result is reported as “failed”.

On to “RNRRREEAARHYLECVLDGLTTGVVVFDEKGRLKTFNKAAEQILGMPLAPLWGSSRHGWHGVSAQQSLLAEVFAAIGAAAGTDKPVQVEYAAPDDAKILLGKATVLPEDNGNGVVMVIDDIT”, for which the protein production result is listed as “failed”.

As to “MKFLDNIKKNQSLMRFIETTQSHMVTAEIGNSSVVVAYYLLLSLFPLLIAVGNVLPYLRIDPNSVLPYIAEAIPKDVYKNLEPAIRSLLTQRSGGLLSVSALAAFWSASQSINALQNAMNKAFGVEQRKNFILVRVVSFLVILLFMVAIVGVVVILGLGQYIIELLQPIFHYSTSVIDTFQALKWPLTTVVLLVIMCLIYAVVPNRKLSLRSILPGAIFSTVGWMLLSQIFGLYVKYFSSRIASYQIIGSFIILMLWLNFAATIIILGAIVNAVVDEYLSGDKEKKQPSFEQRLFRWFKKKK”, the protein production entry is “failed”.

Regarding “WQWDLATNKFIYSDNQHRLLGVERDSFESSNDAFINFVHPEDRHVIKNGERMVLDEQQSSVAFFRVIRKDGQMRYFKSIGKLLTDSSGNKILIGINNDITEEH”, the protein production result is on record as “failed”.

Take “MCASKRSFFMSNSKFNVRLLTEIAFMAALAFIISLIPNTVYGWIIVEIACIPILILSFRRGLTAGLVGGLIWGILSMITGHAYILTLSQAFLEYLIAPVSLGIAGLFRQKTASLKLVPVLLGTFVAVLLKYFFHFIAGIIFWSQYAWKGWGAVAYSLAVNGISAILTAIAAFVILIIFVKKFPKLFIYSNY”: the protein production entry is “failed”. To “MIFVLLICPLFIFIVSVIGTRKTKTYYVMPIVTFASFLIIGVIAFTPKFFFWVGMYSIFSFIVSYMTLLFVKGYEVAENAK” belongs “failed”.
